The text below walks through data of patent publication US20170291959A1 (SORRENTO THERAPEUTICS, published 2017).

The test deals with T1, CD38 on Ramos cells (human, UniProt P28907 1-300).
T1 construct: whole, on cells; also called CD38 expressing cells; Ramos target cells
The experiment in a line: ADCC assay on Ramos cells (binding inferred from it). How it is done:
The ability of anti-CD38 antibodies to bind to CD38 expressing cells and promote functional activity was determined using an antibody-dependent cell-mediated cytotoxicity (ADCC) assay. In this assay, Ramos cells, a Burkitt's lymphoma cell line, were added to wells at 5×10³ cells per well. Test antibodies (C38A2 (“38-A2”), C38D8 (“38-D8”) and C38D4 (“38-D4”) and control IgG) were then added at 1 microgram per ml and incubated with the Ramos cells for 20 minutes at 37° C. After washing, the effector cells were added at different concentrations resulting in three effector-to-target ratios. The effector cells were purified natural killer (NK) cells that had been incubated overnight in the presence of IL-2 (100 U/ml). The assay was allowed to proceed for at least 4 hours after which time cytotoxicity was evaluated using a Promega Cyto-glo kit.

B1: C38A2 (antibody, V domains shown)
VH: QVQLVESGGGLVKPGGSLRLSCAASGFTFSDDYMSWIRQAPGKGLEWVASVSNGRPTTYYADSVRGRFTISRDNAKNSLYLQMNSLRAEDTAVYYCAREDWGGEFTDWGRGTLVTVSS
VL: QAGLTQPPSASGTSGQRVTISCSGSSSNIGINFVYWYQHLPGTAPKLLIYKNNQRPSGVPDRFSGSKSGNSASLAISGLRSEDEADYYCAAWDDSLSGYVFGSGTKVTVL
notes: tested as an antibody beside an IgG matched control in the ADCC assay
Regarding B1, the binding result is listed as “binds”.

B2: C38D8 (antibody, V domains shown)
VH: QVQLVESGGGVVQPGGSLRLSCAASGFIVSTNYVHWVRQAPGKGLEWVSGIYSDPYTSYAYSDSVKGRFTISRDMSKNTVYLQMNRLRAEDTAVYYCARETNTGFSNSWYLDFWGQGTLVTVSS
VL: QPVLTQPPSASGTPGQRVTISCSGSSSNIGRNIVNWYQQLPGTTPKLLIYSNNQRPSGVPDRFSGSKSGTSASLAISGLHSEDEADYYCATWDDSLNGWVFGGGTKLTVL
notes: as for B1
With B2, the binding result is recorded as “binds”.
